Assay results taken from the supplement of paper PMC10567573.

B1: PDS5B (parent)
chain: IYKKYALQSAAGKDAAKQIAWIKD

Variants of: B1
Experiment: protein stability index of a GFP-peptide fusion (GPS, HEK-293T) (PSI 1-6); higher = more stable
Settings: c terminus: a fixed tail appended
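Further: lentivirally expressed fusions sorted by FACS into six bins by GFP to DsRed ratio, PSI derived from sequencing read proportions per bin multiplied by bin number.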

With K23N as the variant, how does the protein stability index read?
Its protein stability index is 2.24.

With K23M as the variant, how does the protein stability index read?
Its protein stability index is 2.

With K23V as the variant, how does the protein stability index read?
Its protein stability index is 1.54.

For K23F, which protein stability index is on record?
The protein stability index was 2.39.

Which protein stability index does the source give for K23W here?
The protein stability index was 2.62.

Which protein stability index does the source give for K23E here?
The protein stability index was 2.53.

With K23H as the variant, how does the protein stability index read?
Its protein stability index is 2.55.

Which protein stability index does the source give for K23D here?
The protein stability index was 2.98.

With K23I as the variant, how does the protein stability index read?
The protein stability index was 2.64.

For K23T, which protein stability index is on record?
The protein stability index was 2.18.

With K23G as the variant, how does the protein stability index read?
The protein stability index was 2.68.

With G12V as the variant, how does the protein stability index read?
Its protein stability index is 2.08.

With G12T as the variant, how does the protein stability index read?
Its protein stability index is 1.71.

With G12Y as the variant, how does the protein stability index read?
Its protein stability index is 1.64.

Which protein stability index does the source give for G12E here?
The protein stability index was 2.34.

For G12N, which protein stability index is on record?
The protein stability index was 2.19.

With G12W as the variant, how does the protein stability index read?
Its protein stability index is 2.63.

Which protein stability index does the source give for G12D here?
The protein stability index was 3.13.

For G12L, which protein stability index is on record?
Its protein stability index is 1.84.

With G12P as the variant, how does the protein stability index read?
Its protein stability index is 2.74.

Which protein stability index does the source give for G12S here?
The protein stability index was 1.96.

Which protein stability index does the source give for G12R here?
Its protein stability index is 1.88.

Which protein stability index does the source give for G12K here?
The protein stability index was 1.75.

With G12A as the variant, how does the protein stability index read?
The protein stability index was 1.86.

With G12H as the variant, how does the protein stability index read?
The protein stability index was 1.67.

Which protein stability index does the source give for G12F here?
Its protein stability index is 1.99.

For K13P, which protein stability index is on record?
The protein stability index was 2.4.

Which protein stability index does the source give for K13A here?
The protein stability index was 2.93.

Which protein stability index does the source give for K13Y here?
The protein stability index was 2.92.

With K13N as the variant, how does the protein stability index read?
Its protein stability index is 2.27.

For K13F, which protein stability index is on record?
The protein stability index was 1.93.

With K13V as the variant, how does the protein stability index read?
Its protein stability index is 2.

Which protein stability index does the source give for K13S here?
Its protein stability index is 2.28.

Which protein stability index does the source give for K13T here?
Its protein stability index is 2.3.

Which protein stability index does the source give for K13I here?
Its protein stability index is 2.16.

For K13G, which protein stability index is on record?
The protein stability index was 2.22.

Which protein stability index does the source give for K13H here?
Its protein stability index is 2.29.

With K13C as the variant, how does the protein stability index read?
Its protein stability index is 1.94.

With K13Q as the variant, how does the protein stability index read?
Its protein stability index is 2.1.

Which protein stability index does the source give for K13W here?
Its protein stability index is 1.84.

For K13L, which protein stability index is on record?
Its protein stability index is 2.14.

For D14Q, which protein stability index is on record?
The protein stability index was 2.15.

For D14T, which protein stability index is on record?
The protein stability index was 1.94.

With D14H as the variant, how does the protein stability index read?
Its protein stability index is 1.86.

Which protein stability index does the source give for D14F here?
Its protein stability index is 2.07.

For D14R, which protein stability index is on record?
Its protein stability index is 2.72.

For D14V, which protein stability index is on record?
Its protein stability index is 2.1.

Which protein stability index does the source give for D14W here?
Its protein stability index is 2.1.

With D14S as the variant, how does the protein stability index read?
The protein stability index was 2.15.

With D14M as the variant, how does the protein stability index read?
The protein stability index was 2.1.

Which protein stability index does the source give for D14G here?
The protein stability index was 2.24.

With D14L as the variant, how does the protein stability index read?
Its protein stability index is 1.68.

With Q8M as the variant, how does the protein stability index read?
The protein stability index was 2.06.

With Q8K as the variant, how does the protein stability index read?
Its protein stability index is 2.35.

For Q8I, which protein stability index is on record?
Its protein stability index is 2.7.

For Q8G, which protein stability index is on record?
The protein stability index was 2.01.

Which protein stability index does the source give for Q8N here?
The protein stability index was 2.06.

With Q8T as the variant, how does the protein stability index read?
Its protein stability index is 1.84.

Which protein stability index does the source give for Q8V here?
Its protein stability index is 2.17.

Which protein stability index does the source give for Q8W here?
The protein stability index was 1.92.

Which protein stability index does the source give for Q8E here?
The protein stability index was 2.67.

Which protein stability index does the source give for Q8P here?
The protein stability index was 2.72.

For Q8L, which protein stability index is on record?
The protein stability index was 1.85.

For Q8Y, which protein stability index is on record?
The protein stability index was 1.69.

Which protein stability index does the source give for Q8F here?
Its protein stability index is 3.35.

For Q8C, which protein stability index is on record?
The protein stability index was 1.29.

With Q8S as the variant, how does the protein stability index read?
The protein stability index was 2.25.

Which protein stability index does the source give for Y2Q here?
The protein stability index was 2.5.

Which protein stability index does the source give for Y2S here?
The protein stability index was 2.84.

For Y2M, which protein stability index is on record?
The protein stability index was 4.12.

Which protein stability index does the source give for Y2V here?
Its protein stability index is 2.27.

Which protein stability index does the source give for Y2E here?
Its protein stability index is 3.9.

With Y2F as the variant, how does the protein stability index read?
The protein stability index was 1.67.

For Y2H, which protein stability index is on record?
The protein stability index was 3.02.

For Y2I, which protein stability index is on record?
The protein stability index was 1.77.

For Y2N, which protein stability index is on record?
Its protein stability index is 2.98.

For Y2T, which protein stability index is on record?
Its protein stability index is 2.98.

Which protein stability index does the source give for Y2R here?
The protein stability index was 2.38.

With Y2G as the variant, how does the protein stability index read?
The protein stability index was 3.38.

For Y2C, which protein stability index is on record?
The protein stability index was 2.96.

With Y2K as the variant, how does the protein stability index read?
The protein stability index was 2.87.

For S9K, which protein stability index is on record?
The protein stability index was 1.87.

For S9H, which protein stability index is on record?
The protein stability index was 2.38.

For S9F, which protein stability index is on record?
Its protein stability index is 2.

For S9E, which protein stability index is on record?
Its protein stability index is 2.73.

For S9V, which protein stability index is on record?
The protein stability index was 2.13.

With S9P as the variant, how does the protein stability index read?
The protein stability index was 2.17.

With S9R as the variant, how does the protein stability index read?
The protein stability index was 2.29.

For S9L, which protein stability index is on record?
Its protein stability index is 1.76.

Which protein stability index does the source give for S9Q here?
The protein stability index was 2.79.

With S9N as the variant, how does the protein stability index read?
The protein stability index was 2.2.

With S9W as the variant, how does the protein stability index read?
Its protein stability index is 1.99.

With S9M as the variant, how does the protein stability index read?
The protein stability index was 2.44.

Which protein stability index does the source give for S9D here?
The protein stability index was 3.27.

For S9T, which protein stability index is on record?
The protein stability index was 2.06.

With A6K as the variant, how does the protein stability index read?
The protein stability index was 2.18.

With A6G as the variant, how does the protein stability index read?
The protein stability index was 2.88.

Which protein stability index does the source give for A6E here?
The protein stability index was 3.2.

Which protein stability index does the source give for A6R here?
Its protein stability index is 2.55.

With A6P as the variant, how does the protein stability index read?
Its protein stability index is 3.02.

Which protein stability index does the source give for A6I here?
Its protein stability index is 2.12.

Which protein stability index does the source give for A6F here?
The protein stability index was 2.49.

For A6V, which protein stability index is on record?
Its protein stability index is 1.82.

Which protein stability index does the source give for A6N here?
The protein stability index was 2.18.

Which protein stability index does the source give for A6D here?
The protein stability index was 2.32.

Which protein stability index does the source give for A6W here?
Its protein stability index is 2.

Which protein stability index does the source give for A6M here?
The protein stability index was 1.8.

With A6Q as the variant, how does the protein stability index read?
Its protein stability index is 2.85.

Which protein stability index does the source give for A6S here?
The protein stability index was 2.49.

For A16I, which protein stability index is on record?
The protein stability index was 2.47.

For A16F, which protein stability index is on record?
The protein stability index was 1.76.

Which protein stability index does the source give for A16Y here?
The protein stability index was 2.05.

Which protein stability index does the source give for A16T here?
Its protein stability index is 2.46.

Which protein stability index does the source give for A16W here?
Its protein stability index is 2.11.

Which protein stability index does the source give for A16Q here?
The protein stability index was 2.35.

With A16L as the variant, how does the protein stability index read?
Its protein stability index is 2.09.

Which protein stability index does the source give for A16N here?
Its protein stability index is 2.39.

With A16G as the variant, how does the protein stability index read?
Its protein stability index is 2.92.

Which protein stability index does the source give for A16D here?
Its protein stability index is 2.75.

For A16P, which protein stability index is on record?
Its protein stability index is 2.05.

For A16S, which protein stability index is on record?
The protein stability index was 2.47.

For A16K, which protein stability index is on record?
The protein stability index was 2.33.

With A16V as the variant, how does the protein stability index read?
The protein stability index was 2.98.

For D24P, which protein stability index is on record?
Its protein stability index is 2.79.

Which protein stability index does the source give for D24C here?
Its protein stability index is 2.08.

With D24G as the variant, how does the protein stability index read?
The protein stability index was 2.08.

Which protein stability index does the source give for D24R here?
The protein stability index was 1.97.

Which protein stability index does the source give for D24V here?
The protein stability index was 2.52.

Which protein stability index does the source give for D24S here?
The protein stability index was 2.42.

Which protein stability index does the source give for D24T here?
Its protein stability index is 1.94.

For D24W, which protein stability index is on record?
Its protein stability index is 1.66.

Which protein stability index does the source give for D24K here?
The protein stability index was 2.19.

For D24H, which protein stability index is on record?
Its protein stability index is 2.14.

For D24M, which protein stability index is on record?
Its protein stability index is 1.59.

With D24L as the variant, how does the protein stability index read?
The protein stability index was 2.02.

For D24I, which protein stability index is on record?
The protein stability index was 1.76.

For I1D, which protein stability index is on record?
Its protein stability index is 3.71.

With I1E as the variant, how does the protein stability index read?
The protein stability index was 3.79.

Which protein stability index does the source give for I1A here?
The protein stability index was 2.62.

Which protein stability index does the source give for I1K here?
Its protein stability index is 2.75.

With I1L as the variant, how does the protein stability index read?
The protein stability index was 2.12.

With I1W as the variant, how does the protein stability index read?
Its protein stability index is 2.14.

Which protein stability index does the source give for I1C here?
Its protein stability index is 3.19.

For I1V, which protein stability index is on record?
Its protein stability index is 2.61.

For I1N, which protein stability index is on record?
The protein stability index was 2.41.

With I1Y as the variant, how does the protein stability index read?
Its protein stability index is 2.1.

For I1T, which protein stability index is on record?
The protein stability index was 3.11.

Which protein stability index does the source give for I1P here?
Its protein stability index is 2.77.

With I1Q as the variant, how does the protein stability index read?
The protein stability index was 3.23.

For L7N, which protein stability index is on record?
The protein stability index was 2.81.

For L7E, which protein stability index is on record?
Its protein stability index is 2.76.

With L7Q as the variant, how does the protein stability index read?
The protein stability index was 3.06.

With L7S as the variant, how does the protein stability index read?
The protein stability index was 2.68.

With L7V as the variant, how does the protein stability index read?
Its protein stability index is 2.32.

Which protein stability index does the source give for L7Y here?
Its protein stability index is 2.04.

Which protein stability index does the source give for L7R here?
The protein stability index was 2.3.

With L7P as the variant, how does the protein stability index read?
Its protein stability index is 2.92.

With L7T as the variant, how does the protein stability index read?
Its protein stability index is 2.63.

For L7H, which protein stability index is on record?
Its protein stability index is 2.6.

For L7K, which protein stability index is on record?
Its protein stability index is 2.55.

With L7F as the variant, how does the protein stability index read?
The protein stability index was 1.68.

With L7W as the variant, how does the protein stability index read?
The protein stability index was 1.69.

Which protein stability index does the source give for L7D here?
Its protein stability index is 3.16.

Which protein stability index does the source give for L7M here?
Its protein stability index is 2.32.

Which protein stability index does the source give for A11N here?
The protein stability index was 2.61.

With A11S as the variant, how does the protein stability index read?
The protein stability index was 2.3.

Which protein stability index does the source give for A11M here?
The protein stability index was 1.78.
